Results from patent US20050074754A1 (published 2005).

Target: T1, human NKG2D (human, UniProt P26718 1-216)
T1 construct: whole, on cells; also called hNKG2D; expressed on CHO-K1/hNKG2D-11 cells
T1 sequence (looked up): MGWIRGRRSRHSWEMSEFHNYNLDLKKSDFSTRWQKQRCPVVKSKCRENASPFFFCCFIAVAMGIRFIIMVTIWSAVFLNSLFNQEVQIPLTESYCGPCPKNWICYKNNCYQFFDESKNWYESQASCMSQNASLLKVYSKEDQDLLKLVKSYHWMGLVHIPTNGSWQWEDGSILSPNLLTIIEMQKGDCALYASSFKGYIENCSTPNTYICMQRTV
Test: flow cytometry on CHO-K1/hNKG2D-11 cells, detected with anti-human IgG (Fc)-FITC
Method: The human NKG2D-expressing CHO-K1 cell strain CHO-K1/hNKG2D-11 obtained in Example 7 was washed twice with PBS/1% FBS and suspended in 50 μl PBS/1% FBS containing 10 μl concentrate of the culture supernatant of the CSP2-Fc-expressing COS7 cells obtained in Example 6. The suspension was reacted at 0° C. for 60 minutes for binding them, then washed twice with 200 μl PBS/1% FBS, and suspended in 50 μl PBS/1% FBS containing 1 μl anti-human IgG (Fc)-FITC conjugate (Caltag). The suspension was reacted at 0° C. for 60 minutes for labeling, then washed twice with 200 μl PBS/1% FBS, and suspended again in 600 μl PBS/1% FBS. When the suspension was analyzed with a flow cytometer FACS Vantage (Becton Dickinson), cells with high intensity of FITC fluorescence were recognized, and the evident binding of CSP2-Fc protein to human NKG2D expressed on the surface of CHO-K1 cells was observed (FIG. 2A).

B1: CSP2-Fc protein (fusion protein of CSP2 protein with human IgG Fc region) (Fc fusion)
chain: HSLCFNFTIKSLSRPGQPWCEAQVFLNKNLFLQYNSDNNMVKPLGLLGKKVNATSTWGELTQTLGEVGRDLRMLLCDIKPQIKTSDPSTLQVEMFCQREAERCTGASWQFAINGEKSLLFDAMNMTWTVINHEASKIKETWKKDRGLEKYFRKLSKGDCDHWLREFLGHWEAMPEPTVSPVNASDIHWSSS
notes: Used as a 100-fold concentrate of the culture supernatant of transfected COS7 cells, not purified; The construct encodes CSP2 residues 1-221; not shown: human IgG Fc region, amplified by PCR from human spleen IgG Fc cDNA (Clontech); Subclass, limits and the residues encode
Does B1 bind?
Result: binds
